In paper PMC11145553, “SORL1 is a receptor for tau that promotes tau seeding” (The Journal of Biological Chemistry, 2024):

Assays:
Conditions in all cases: both partners purified
[1] = target: T1, Phosphorylated 2N4R tau produced in SF9 cells (human, UniProt P10636-8 1-441, phosphorylated (hyperphosphorylated forms; intermediate tau phosphorylation state); sites not given); assay: SPR; SORL1 VPS10 domain amine-coupled to a CM5 chip; tau in single cycle titrations (3.8-310 nM); 0.15 M NaCl, 0.05% Tween 20, 1 mM CaCl2 pH 7.4; equilibrium analysis (Req from a pseudo-first-order fit)
T1 construct: also called 2N4R SF9; SF9 tau; source: SF9 cells (baculovirus), purified (boiled lysate, HisTrap)
T1 sequence (P10636 other isoform, or with tags, fused parts or gaps): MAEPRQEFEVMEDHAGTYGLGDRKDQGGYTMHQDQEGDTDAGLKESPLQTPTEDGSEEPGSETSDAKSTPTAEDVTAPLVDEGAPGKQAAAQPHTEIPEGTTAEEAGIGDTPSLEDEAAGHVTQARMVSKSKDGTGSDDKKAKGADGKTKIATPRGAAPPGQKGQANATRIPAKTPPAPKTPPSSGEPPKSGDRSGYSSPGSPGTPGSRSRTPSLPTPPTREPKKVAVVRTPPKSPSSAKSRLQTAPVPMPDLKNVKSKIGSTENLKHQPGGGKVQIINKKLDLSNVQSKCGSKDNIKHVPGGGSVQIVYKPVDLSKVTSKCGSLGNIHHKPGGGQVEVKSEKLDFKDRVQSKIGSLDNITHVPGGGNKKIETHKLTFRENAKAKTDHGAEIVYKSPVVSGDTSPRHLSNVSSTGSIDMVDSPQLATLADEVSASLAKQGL

[2] = target: T1, Phosphorylated 2N4R tau produced in SF9 …; assay: SPR; SORL1 VPS10 domain amine-coupled to a CM5 chip; tau in single cycle titrations (3.8-310 nM); 0.15 M NaCl, 0.05% Tween 20, 1 mM CaCl2 pH 7.4; kinetic analysis, 1:1 fit, KD calculated from the kinetic parameters
[3] = target: T2, Recombinant human 2N4R tau (full-length tau), WT (human, UniProt P10636-8 1-441); assay: as above
T2 construct: the His tag applies only to the in-house protein; The uptake assays used 125I-labeled R&D SP-495; also called monomeric tau; microtubule-associated protein tau; source: His-tagged, E. coli, purified, or bought: R&D Systems (SP-495)
T2 sequence (P10636 other isoform, or with tags, fused parts or gaps): as above

B1: Recombinant human SORL1 VPS10 domain, aa 82 to 753 (domain or fragment, UniProt Q92673 82-753, looked up)
chain: SAALQPEPIKVYGQVSLNDSHNQMVVHWAGEKSNVIVALARDSLALARPKSSDVYVSYDYGKSFKKISDKLNFGLGNRSEAVIAQFYHSPADNKRYIFADAYAQYLWITFDFCNTLQGFSIPFRAADLLLHSKASNLLLGFDRSHPNKQLWKSDDFGQTWIMIQEHVKSFSWGIDPYDKPNTIYIERHEPSGYSTVFRSTDFFQSRENQEVILEEVRDFQLRDKYMFATKVVHLLGSEQQSSVQLWVSFGRKPMRAAQFVTRHPINEYYIADASEDQVFVCVSHSNNRTNLYISEAEGLKFSLSLENVLYYSPGGAGSDTLVRYFANEPFADFHRVEGLQGVYIATLINGSMNEENMRSVITFDKGGTWEFLQAPAFTGYGEKINCELSQGCSLHLAQRLSQLLNLQLRRMPILSKESAPGLIIATGSVGKNLASKTNVYISSSAGARWREALPGPHYYTWGDHGGIITAIAQGMETNELKYSTNEGETWKTFIFSEKPVFVYGLLTEPGEKSTVFTIFGSNKENVHSWLILQVNATDALGVPCTENDYKLWSPSDERGNECLLGHKTVFKRRTPHATCFNGEDFDRPVVVSNCSCTREDYECDFGFKMSEDLSLEVCVPDPEFSGKSYSPPVPCPVGSTYRRTRGYRKISGDTCSGGDVEARLEGELVPCP
notes: VPS10 domain of sortilin-related receptor 1 (SORL1), human, residues 82-753; also called vacuolar protein sorting 10 domain of SORL1; VPS10 peptide; source: bought: R&D Systems (9880-LA)
[1]
  Kd: 95 nM
[2]
  Kd: 78 nM
  koff: 0.0061 s⁻¹
  kon: 85000 M⁻¹ s⁻¹
[3]
  Kd: 15 nM
  koff: 0.41 s⁻¹
  kon: 5e+07 M⁻¹ s⁻¹
